Assay results as given in PMC9800579, “Interplay of membrane crosslinking and curvature induction by annexins” (Scientific Reports, 2022).

Biological target: the molecule itself
Experiment: atomic force microscopy; alternating contact mode on DOPC/DOPS (1:1) supported lipid bilayers on mica, 10 mM TRIS pH 7.4, 140 mM NaCl, 2 mM Ca2+; 40 nM ANXA4 added with 40 nM ANXA1-GFP or ANXA2-GFP; 250 nm x 250 nm scans of the lower (ANXA4) domains, Fourier transform

B1: annexin A4 (natural protein, UniProt P09525 1-319, looked up)
chain: MATKGGTVKAASGFNAMEDAQTLRKAMKGLGTDEDAIISVLAYRNTAQRQEIRTAYKSTIGRDLIDDLKSELSGNFEQVIVGMMTPTVLYDVQELRRAMKGAGTDEGCLIEILASRTPEEIRRISQTYQQQYGRSLEDDIRSDTSFMFQRVLVSLSAGGRDEGNYLDDALVRQDAQDLYEAGEKKWGTDEVKFLTVLCSRNRNHLLHVFDEYKRISQKDIEQSIKSETSGSFEDALLAIVKCMRNKSAYFAEKLYKSMKGLGTDDNTLIRVMVSRAEIDMLDIRAHFKRLYGKSLYSFIKGDTSGDYRKVLLVLCGGDD
notes: annexin A4 (ANXA4), unlabelled recombinant protein from a PCR-amplified cDNA in pETM11-SUMO3; the introduction gives 320 amino acids for ANXA4 (cited); also called ANXA4; recombinant ANXA4; source: E. coli BL21 (DE3), purified (Ni-NTA IMAC, Superdex 200 SEC); not shown: 6xHis, N-terminal, cleaved; SUMO3 domain, N-terminal, cleaved
stoichiometry N: 3
